PMC12809912 (2025)

B1: mouse monoclonal antibody clone 1A8 (anti-DEFA5) [modified: Fc glycosylation, mainly the G1F glycoform (intact ESI-MS)] [mouse] / peptide No. 57 of the overlapping library, DEFA5 amino acids 61-75 (ARATCYCRTGRCATR) [human] (parent complex)
chain 1: QVQLQQSGAELVRPGASVKMSCKALGYTFFDYEMHWMKQTPVYGLEWIGAIHPGSGDTAYNQKFKGKATLTADKSSNTAYMELSSLTSEDSAVYYCTREGTVVAPFDYWGQGTTLTVSS
chain 2: DVLMTQTPLSLPVSLGDQASISCRSSQSIVHSNGNTYLEWYLQKPGQSPKLLINKVSNRFSGVPDRFSGSGSGTDFTLKISRVEAEDLGVYYCFQGSYVPYTFGGGTKLEIK
chain 3: ARATCYCRTGRCATR

Variants of: B1
Test: indirect ELISA; parent: 2.2; read off a plot

Variant	response [OD450nm]
chain 3 R11A	~0.07
chain 3 C12A	~0.95
chain 3 R15A	~2.2
chain 3 G10A	~1.9
chain 3 T9A	~1.7
chain 3 T14A	~1.7
chain 3 T4A	~1.9
chain 3 A13G	~1.8
chain 3 R8A	~1.8
chain 3 Y6A	~1.9
chain 3 C5A	~1.9
chain 3 R2A	~1.9
chain 3 A3G	~1.8

Variants of: B1
Test: indirect ELISA; parent: 2.6; read off a plot

Variant	response [OD450nm]
chain 3 R11A	~0.07
chain 3 C12A	~1.1
chain 3 R15A	~2.6
chain 3 G10A	~1.9
chain 3 T9A	~1.9
chain 3 T14A	~2
chain 3 T4A	~1.9
chain 3 A13G	~1.8
chain 3 R8A	~1.8
chain 3 Y6A	~1.8
chain 3 C5A	~2
chain 3 R2A	~1.9
chain 3 A3G	~1.8
chain 3 C7A	~1.2
